Source: patent CN106554420A (SHANGHAI UNION BIOPHARM CO LTD; LI JUN, dated 2017)

B1: 鼠单抗mF3-9 (antibody, V domains shown)
VH: QVQLQQSGAELVRPGSSVKISCKASGYSFSSYWMNWVKQRPGQGLEWIGQIYPGDGDTNFNGKFKGKATLTADKSSSTAYMQLSSLTSEDSAVYFCGNYDYDGEIPYWGQGTTLTVSS
VL: DIFLTQSPAILSVSPGERVNFSCRASQTIGTSLHWYQQRTNGSPRLLIKYASESISGIPSRFSGSGSGTEFTLRINSVESEDIADYYCQQSSKWPLTFGQGTKVEIK
notes: Mouse hybridoma monoclonal antibody; also called 鼠单抗F3-9; 抗体F3-9
B2: 人-鼠嵌合型F3-9抗体(chF3-9) (antibody, IgG2, V domains shown)
VH: B1 VH
VL: B1 VL
notes: also called F3-9嵌合抗体; 嵌合PCSK9抗体F3-9

Assays:
[1] = biological target: T1, huPCSK9-His，重组人PCSK9胞外区His融合蛋白 (human, UniProt Q8NBP7 31-692, biotin-labelled in the ELISA and in the LDL-R blocking assay (sites not given)); assay: cell-based or functional assay
T1 sequence (Q8NBP7 other isoform, or with tags, fused parts or gaps limits assumed): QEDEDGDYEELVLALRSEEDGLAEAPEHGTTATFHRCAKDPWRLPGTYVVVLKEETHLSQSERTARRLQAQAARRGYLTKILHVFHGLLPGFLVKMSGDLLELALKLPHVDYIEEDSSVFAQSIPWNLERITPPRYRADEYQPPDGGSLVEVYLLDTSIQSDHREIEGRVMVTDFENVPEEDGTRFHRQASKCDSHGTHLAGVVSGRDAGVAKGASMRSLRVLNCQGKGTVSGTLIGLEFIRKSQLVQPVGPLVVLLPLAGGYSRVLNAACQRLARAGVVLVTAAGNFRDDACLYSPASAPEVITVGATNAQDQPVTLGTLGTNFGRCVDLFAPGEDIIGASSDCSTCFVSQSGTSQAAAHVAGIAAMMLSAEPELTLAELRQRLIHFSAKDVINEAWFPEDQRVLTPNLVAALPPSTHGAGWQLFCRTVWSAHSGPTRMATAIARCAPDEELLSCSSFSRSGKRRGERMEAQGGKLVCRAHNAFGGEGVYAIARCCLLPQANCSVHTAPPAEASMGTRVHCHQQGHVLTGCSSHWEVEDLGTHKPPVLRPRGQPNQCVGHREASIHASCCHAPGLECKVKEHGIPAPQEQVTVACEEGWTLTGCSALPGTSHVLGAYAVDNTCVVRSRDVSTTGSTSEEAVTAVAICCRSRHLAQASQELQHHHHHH

[2] = biological target: T1, huPCSK9-His，重组人PCSK9胞外区His融合蛋白; assay: ELISA, biotin-labelled PCSK9-His captured on neutravidin-coated plate
[3] = biological target: T2, cyPCSK9，猕猴PCSK9胞外区His融合蛋白 (猕猴 (macaque), UniProt A8T662 31-692, biotin-labelled in the ELISA (sites not given)); assay: as above
T2 construct: Bought (Novoprotein CA87); The printed entry includes the His tag
T2 sequence (A8T662 other isoform, or with tags, fused parts or gaps limits assumed, form in doubt): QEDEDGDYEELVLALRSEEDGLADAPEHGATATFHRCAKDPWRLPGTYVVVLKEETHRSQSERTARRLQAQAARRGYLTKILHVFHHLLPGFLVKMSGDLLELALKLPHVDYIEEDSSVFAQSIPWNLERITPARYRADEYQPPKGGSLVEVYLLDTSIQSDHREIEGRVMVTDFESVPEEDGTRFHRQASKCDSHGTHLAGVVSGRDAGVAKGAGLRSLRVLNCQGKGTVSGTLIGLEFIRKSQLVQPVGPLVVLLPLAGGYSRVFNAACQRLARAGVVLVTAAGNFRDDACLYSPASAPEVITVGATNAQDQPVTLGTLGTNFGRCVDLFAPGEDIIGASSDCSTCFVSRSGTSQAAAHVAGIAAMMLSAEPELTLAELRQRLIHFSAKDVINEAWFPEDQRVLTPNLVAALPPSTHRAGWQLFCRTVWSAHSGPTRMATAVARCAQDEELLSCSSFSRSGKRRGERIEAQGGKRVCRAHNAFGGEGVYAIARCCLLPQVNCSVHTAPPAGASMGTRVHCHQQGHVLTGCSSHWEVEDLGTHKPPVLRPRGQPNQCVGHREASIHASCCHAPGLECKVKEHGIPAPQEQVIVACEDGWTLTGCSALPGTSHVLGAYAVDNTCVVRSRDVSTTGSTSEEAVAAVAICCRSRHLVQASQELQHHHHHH

[4] = biological target: T1, huPCSK9-His，重组人PCSK9胞外区His融合蛋白; assay: BLI (ForteBio), chF3-9 captured on anti-human Fc (AHC) sensor, PCSK9 in solution, 1:1 global fit
[5] = biological target: T2, cyPCSK9，猕猴PCSK9胞外区His融合蛋白; assay: as above

Binder | 有效活性浓度(EC50), antagonism of PCSK9 inhibition of LDL uptake by HepG2 cells [1] [nM] | EC50 [2] [nM] | EC50 [3] [nM] | Kd [4] [nM] | Kd [5] [nM]
B1 | 10 | 0.68 | 0.62 | – | –
B2 | – | – | – | 0.42 | 1.27
